Test results as given in PMC8564726, “Heterodimerization of H3K9 histone methyltransferases G9a and GLP activates methyl reading and writing capabilities” (The Journal of Biological Chemistry, 2021).
Where two headings read alike, the source gives them in different places.

Legend:
H3_1–20 K9me1 peptide = experiment: Fluorescence polarization binding to H3K9me1 peptide
Procedure: (§1) Polarization assays with fluoresceinated H3_1–20 K9me1 or K9me2 peptides, 147 bp 601 DNA template, and core nucleosomes were performed and Kd values estimated as described ([11]) with the following modifications: The reaction buffer was 100 mM Tris pH 8, 100 mM KCl, 1 mM MgCl2, 20 μM ZnSO4, 10 mM BME, 0.1% NP-40. The concentration of peptides and nucleosomes was 150 nM and 200 nM for DNA. Polarization measurements were conducted on a Biotek Cytation 5 (peptide and nucleosome) or Molecular Devices Spectramax (DNA) plate reader with low-volume plates (Corning) in either 10 μl (peptide, nucleosome) or 40 μl (DNA) total volume.

H3_1–20 K9me2 peptide = experiment: Fluorescence polarization binding to H3K9me2 peptide
Procedure: as §1

[1] = tested on: unmethylated (H3K9me0) mononucleosomes; experiment: Fluorescence polarization binding to unmethylated mononucleosome
From the text: (§2) Histone proteins and nucleosomes were purified as described ([11], [26]) with modifications (see Supporting methods). For fluorescence polarization, nucleosomes were reconstituted with a 5ʹ fluoresceinated DNA template. H3K9 dimethylation was installed via Methyl-Lysine Analog (MLA) technology as described ([10], [26]). K9 MLA-monomethylated H3 was purchased from Active Motif. H3K27A was introduced by site-directed mutagenesis and purified as described ([26]).
as §1

[2] = tested on: H3K9me1 monomethylated mononucleosomes; experiment: Fluorescence polarization binding to H3K9me1 mononucleosome
From the text: as §2, §1

H3_1–20 peptide = experiment: H3 tail peptide methylation kinetics (multiple turnover); assay type: biochemical; settings: Michaelis–Menten, 9 μM 3H-SAM + 1000 μM cold SAM, 0.4 to 0.8 μM enzyme, pH 8, duplicates, 95% CI: G9a-G9a 24.6-34.6, GLP-GLP 9.5-15.5, G9a-GLP 26.0-34.5, G9aS-GLP 20.5-28.3, listed as GLP
Procedure: (§3) Substrate peptides or nucleosomes were mixed in a solution containing 9 μM tritiated S-Adenosyl Methionine (SAM, PerkinElmer) cofactor, and reactions were initiated upon addition of 0.4 to 0.8 μM enzyme. Peptide reactions were supplemented with 1000 μM cold SAM to fully saturate the SAM-binding pocket (Fig. S3). Due to signal limitations, nucleosome reactions were not supplemented with SAM (see Supporting methods). Reactions were run in 100 mM Tris pH 8, 100 mM KCl, 1 mM MgCl2, 20 μM ZnSO4, 10 mM BME and quenched with laemmli buffer. Peptide reactions were performed as described ([11]). Nucleosome methylation reactions were read out via autoradiography as described ([11]), except that proteins were separated on an 18% SDS PAGE gel.
All methylation reactions (except Fig. S4A) were performed under Multiple Turnover conditions ([25]). To determine initial rates, methylation time courses were traced at various concentrations of H3K9-containing substrate while keeping the concentration of SAM and enzyme constant. Plots of initial rate versus concentration H3K9 substrate measured in duplicate or triplicate were fit to V = Vmax∗[S]/(KM + [S]) using Prism software to extract KM and kcat (or kobs) values as well as the 95% confidence interval bounds of the fit. See Supporting methods for special considerations for nucleosome kinetics.

[3] = tested on: mononucleosome (core nucleosome); experiment: Mononucleosome methylation kinetics (multiple turnover); assay type: biochemical; settings: initial rates, 10 μM histone tails (Fig. 3F)
From the text: as §2
Substrate peptides or nucleosomes were mixed in a solution containing 9 μM tritiated S-Adenosyl Methionine (SAM, PerkinElmer) cofactor, and reactions were initiated upon addition of 0.4 to 0.8 μM enzyme. Peptide reactions were supplemented with 1000 μM cold SAM to fully saturate the SAM-binding pocket (Fig. S3). […] Nucleosome methylation reactions were read out via autoradiography as described ([11]), except that proteins were separated on an 18% SDS PAGE gel. […]
(§4) Detailed E. coli protein expression, purification, and tag cleavage methods Cells co- expressing His and MBP constructs were lysed on ice via sonication in lysis buffer (100mM Tris pH 8, 300mM NaCl, 10% glycerol (v/v), 0.1% Tween-20, with freshly added 1mM β-mercaptoethanol (BME), 1mM PMSF, 5mM Benzamidine, 200µM Leupeptin, Aproptinin, Pepstatin, Phenantroline). […] All protein constructs were quantified using SDS page with BSA standards and Sypro Red stain. […]

10-nucleosome arrays = experiment: Nucleosome array methylation, initial rate; assay type: biochemical; settings: 2 μM histone tails, nonsaturating (Fig. 3H)
Procedure: as §3
All methylation reactions (except Fig. S4A) were performed under Multiple Turnover conditions ([25]). […]
as §4

Molecule	affinity for H3K9me1 peptide, in words (H3_1–20 K9me1 peptide)	affinity for H3K9me1 peptide, in words (H3_1–20 K9me1 peptide; listed as GLP)	reduced binding to me2 peptides (fold) (H3_1–20 K9me2 peptide; GLP ANK-SET homodimer, reduction as worded (reference me1 binding or ANK alone not stated)) [times]	binding to nucleosomes, in words [1]	Kd ([1]; 147 bp 601 DNA 5ʹ fluorescein-labeled nucleosomes, 150 nM, pH 8, 100 mM KCl, 0.1% NP-40, 95% CI (μM): G9a 6.4-8.6, G9a-GLP 5.6-7.6, GLP-GLP 17.4-41.5, read-out: Kd, unmethylated (me0) mononucleosome) [µM]	binding to H3K9me1 nucleosomes, in words [2]	kcat, H3_1–20 peptide (H3_1–20 peptide) [s⁻¹]	activity on mononucleosomes near saturation, in words [3]	initial rate on nucleosome arrays, in words (10-nucleosome arrays)	affinity for H3K9me2 peptide, in words (H3_1–20 K9me2 peptide)
GLP-GLP: homodimer of GLP truncated to the C-terminal ANK and SET domains (ANK-SET) (protein) MAAADAEQAVLAKQETKQDCCMKTELLREDTPMAADEGSTEKQEGETPMAADGETNGSCEKSGDPSHLNAPKHTQENTRASPQEGTNRVSRVAENGVSERDTEVGKQNHVTADDFMQTSVIGSNGYFLNKPALQGQPLRTPNILTSSLPGHAAKTLPGGASKCRTLSALPQTPTTAPTVPGEGSADTEDRKPTASGTDVRVHRARKTMPKSILGLHAASKDHREVQDHKEPKEDINRNISECGRQQLLPTFPALHQSLPQNQCYMATTKSQTACLPFVLAAAVSRKKKRRMGTYSLVPKKKTKVLKQRTVIEMFKSITHSTVGAKGEKALDDSALHVNGESLEMDSEDEDSDELEDDEDHGAEQAAAFPTEDSRTSKESMSETDRAAKMDGDSEEEQESPDTGEDEDGGDESDLSSESSIKKKFLKRRGKTDSPWIKPARKRRRRSRKKPSSMLGSEACKSSPGSMEQAALGDSAGYMEVSLDSLDLRVRGILSSQTENEGLASGPDVLGTDGLQEVPLCSCRMETPKSREISTLANNQCMATESVDHELGRCTNSVVKYELMRPSNKAPLLVLCEDHRGRMVKHQCCPGCGYFCTAGNFMECQPESSISHRFHKDCASRVNNASYCPHCGEEASKAKEVTIAKADTTSTVTLAPGQEKSLAAEGRADTTTGSIAGAPEDERSQSTAPQAPECFDPAGPAGLVRPTSGLSQGPGKETLESALIALDSEKPKKLRFHPKQLYFSARQGELQKVLLMLVDGIDPNFKMEHQSKRSPLHAAAEAGHVDICHMLVQAGANIDTCSEDQRTPLMEAAENNHLDAVKYLIKAGAQVDPKDAEGSTCLHLAAKKGHYDVVQYLLSNGQMDVNCQDDGGWTPMIWATEYKHVELVKLLLSKGSDINIRDNEENICLHWAAFSGCVDIAEILLAAKCDLHAVNIHGDSPLHIAARENRYDCVVLFLSRDSDVTLKNKEGETPLQCASLSSQVWSALQMSKALRDSAPDKPVAVEKTVSRDIARGYERIPIPCVNAVDSELCPTNYKYVSQNCVTSPMNIDRNITHLQYCVCVDDCSSSTCMCGQLSMRCWYDKDGRLLPEFNMAEPPLIFECNHACSCWRNCRNRVVQNGLRARLQLYRTQDMGWGVRSLQDIPLGTFVCEYVGELISDSEADVREEDSYLFDLDNKDGEVYCIDARFYGNVSRFINHHCEPNLVPVRVFMSHQDLRFPRIAFFSTRLIQAGEQLGFDYGERFWDVKGKLFSCRCGSSKCRHSSAALAQRQASAAQEPQENGLPDTSSAAAADPL	can recognize H3K9me1	binds H3K9me1 peptides tightly	12.5	binds poorly to nucleosomes	26.3	binds relatively tightly to H3K9me1	~0.233	slowest of the three enzyme constructs	slowest	
full-length G9a: E. coli expressed MBP:FL-G9a (protein) MRGLPRGRGLMRARGRGRAAPTGGRGRGRGGAHRGRGRPRSLLSLPRAQASWAPQLPAGLTGPPVPCLPSQGEAPAEMGALLLEKEPRGAAERVHSSLGDTPQSEETLPKANPDSLEPAGPSSPASVTVTVGDEGADTPVGAASLIGDEPESLEGDGGRIVLGHATKSFPSSPSKGGACPSRAKMSMTGAGKSPPSVQSLAMRLLSMPGAQGAATAGPEPSPATTAAQEGQPKVHRARKTMSKPSNGQPPIPEKRPPEVQHFRMSDDMHLGKVTSDVAKRRKLNSGSLSEDLGSAGGSGDIILEKGEPRPLEEWETVVGDDFSLYYDAYSVDERVDSDSKSEVEALAEQLSEEEEEEEEEEEEEEEEEEEEEEEEEDEESGNQSDRSGSSGRRKAKKKWRKDSPWVKPSRKRRKREPPRAKEPRGVNGVGSSGPSEYMEVPLGSLELPSEGTLSPNHAGVSNDTSSLETERGFEELPLCSCRMEAPKIDRISERAGHKCMATESVDGELLGCNAAILKRETMRPSSRVALMVLCEAHRARMVKHHCCPGCGYFCTAGTFLECHPDFRVAHRFHKACVSQLNGMVFCPHCGEDASEAQEVTIPRGDGGTPPIGTAAPALPPLAHDAPGRADTSQPSARMRGHGEPRRPPCDPLADTIDSSGPSLTLPNGGCLSAVGLPPGPGREALEKALVIQESERRKKLRFHPRQLYLSVKQGELQKVILMLLDNLDPNFQSDQQSKRTPLHAAAQKGSVEICHVLLQAGANINAVDKQQRTPLMEAVVNNHLEVARYMVQLGGCVYSKEEDGSTCLHHAAKIGNLEMVSLLLSTGQVDVNAQDSGGWTPIIWAAEHKHIDVIRMLLTRGADVTLTDNEENICLHWASFTGSAAIAEVLLNAQCDLHAVNYHGDTPLHIAARESYHDCVLLFLSRGANPELRNKEGDTAWDLTPERSDVWFALQLNRKLRLGVGNRAVRTEKIICRDVARGYENVPIPCVNGVDGEPCPEDYKYISENCETSTMNIDRNITHLQHCTCVDDCSSSNCLCGQLSIRCWYDKDGRLLQEFNKIEPPLIFECNQACSCWRSCKNRVVQSGIKVRLQLYRTAKMGWGVRALQTIPQGTFICEYVGELISDAEADVREDDSYLFDLDNKDGEVYCIDARYYGNISRFINHLCDPNIIPVRVFMLHQDLRFPRIAFFSSRDIRTGEELGFDYGDRFWDIKSKYFTCQCGSEKCKHSAEAIALEQSRLARLDPHPELLPDLSSLPPINT	no discernable affinity for me1 or me2 peptides									no discernable affinity for me1 or me2 peptides
